Drawing on patent US20220324997A1, this text covers Gm (geometric mean fluorescence) for one substance.

In the experiment the target is CD55 on healthy donor erythrocytes (human) (UniProt P08174). In words: flow cytometry on healthy donor erythrocytes, mAb at 10 µg/ml, positive control. Background: Flow cytometry measures light scatter and fluorescence of single cells or particles in a stream.
Sequence of UniProt P08174 (P08174 35-353): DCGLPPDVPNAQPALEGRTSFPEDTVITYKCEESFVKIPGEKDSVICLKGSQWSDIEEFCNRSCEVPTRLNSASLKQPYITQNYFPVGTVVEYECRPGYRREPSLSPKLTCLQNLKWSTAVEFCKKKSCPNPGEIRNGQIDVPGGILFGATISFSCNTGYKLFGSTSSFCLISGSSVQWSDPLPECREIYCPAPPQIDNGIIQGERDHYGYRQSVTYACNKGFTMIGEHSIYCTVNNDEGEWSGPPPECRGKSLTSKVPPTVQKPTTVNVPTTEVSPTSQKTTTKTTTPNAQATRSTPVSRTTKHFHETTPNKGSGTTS

For the substance 791T/36 (anti-CD55 mAb) (antibody), the Gm (geometric mean fluorescence) stood at 202.
